± gives the uncertainty stated by the source.
Experiment: protein stability index of a GFP-peptide fusion (yeast GPS) (PSI 1-4); higher = more stable; sorted into four equal gates, so the index is relative within each strain
Summary of the method: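 Peptides tiling yeast proteins in 17-residue segments were fused downstream of GFP, with Cherry expressed from the same plasmid. As a pooled library in yeast, mid-log cultures grown in leucine-free medium were sorted into four equal gates by GFP/Cherry fluorescence ratio. Gate plasmids were PCR-amplified and Illumina-sequenced, and barcodes linked reads to strains. Each peptide received a protein stability index equal to the sum of each gate's read frequency times its gate number.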

KKTCSSCGYPAAKTRSY [RPL37A]
protein stability index (doa10∆): 2.25 ± 0.27
protein stability index (pdr5∆): 3.17 ± 0.11
protein stability index (san1∆): 2.69 ± 0.093
protein stability index (ubr1∆): 3.27 ± 0.11

TGHLFLKIIHTSVWAGQ [PRP8]
protein stability index (doa10∆): 1.31 ± 0.06
protein stability index (pdr5∆): 1.31 ± 0.056
protein stability index (san1∆): 1.19 ± 0.097
protein stability index (ubr1∆): 1.28 ± 0.051

DELEDDTLNETNLKMKR [RRP43]
protein stability index (doa10∆): 3.18 ± 0.093
protein stability index (pdr5∆): 3.25 ± 0.082
protein stability index (san1∆): 3.26 ± 0.075
protein stability index (ubr1∆): 3.36 ± 0.098

LYKEFFNEKFPSLIQEE [NUT1]
protein stability index (doa10∆): 3 ± 0.13
protein stability index (pdr5∆): 3.19 ± 0.13
protein stability index (san1∆): 3.06 ± 0.059
protein stability index (ubr1∆): 3.2 ± 0.12

VQMAKILRKELSEEKEV [MCD1]
protein stability index (doa10∆): 3.37 ± 0.21
protein stability index (pdr5∆): 3.17 ± 0.27
protein stability index (san1∆): 2.9 ± 0.12

VMSSDDENAPVATNANA [PRE10]
protein stability index (doa10∆): 3.27 ± 0.18
protein stability index (pdr5∆): 3.42 ± 0.11
protein stability index (san1∆): 3.15 ± 0.13
protein stability index (ubr1∆): 2.5 ± 0.26

MGDELTRSHFNALYDTL [RPN6]
protein stability index (doa10∆): 2.3 ± 0.048
protein stability index (pdr5∆): 2.45 ± 0.067
protein stability index (san1∆): 2.67 ± 0.051
protein stability index (ubr1∆): 2.74 ± 0.044

GFVIQDRETALDFIGRR [RPB2]
protein stability index (doa10∆): 3.02 ± 0.075
protein stability index (pdr5∆): 2.92 ± 0.13
protein stability index (san1∆): 3.34 ± 0.077
protein stability index (ubr1∆): 3 ± 0.11

KESDESKSAFSFGSKPT [YJL041W/NSP1]
protein stability index (doa10∆): 3.1 ± 0.048
protein stability index (pdr5∆): 3.22 ± 0.061
protein stability index (san1∆): 3.198 ± 0.029
protein stability index (ubr1∆): 3.108 ± 0.031

VTVDQYVNVAISIYNML [SSN2]
protein stability index (doa10∆): 1.72 ± 0.057
protein stability index (pdr5∆): 1.88 ± 0.062
protein stability index (san1∆): 1.52 ± 0.12
protein stability index (ubr1∆): 1.44 ± 0.052

TPQSKGFVRNSFFSGLS [RPO31]
protein stability index (doa10∆): 3.01 ± 0.089
protein stability index (pdr5∆): 2.79 ± 0.074
protein stability index (san1∆): 3.13 ± 0.089
protein stability index (ubr1∆): 2.86 ± 0.046

IKTFFTQKDSARVSPRN [YAR002W/NUP60]
protein stability index (doa10∆): 3.22 ± 0.097
protein stability index (pdr5∆): 3.49 ± 0.1
protein stability index (san1∆): 3.18 ± 0.086
protein stability index (ubr1∆): 3.02 ± 0.064

SPFSITFSVYHESTSRT [YMR129W/POM152]
protein stability index (doa10∆): 2.36 ± 0.11
protein stability index (pdr5∆): 2.55 ± 0.062
protein stability index (san1∆): 2.76 ± 0.056
protein stability index (ubr1∆): 2.33 ± 0.06

DGENDKKEATKPAFSFG [YLR335W/NUP2]
protein stability index (doa10∆): 2.59 ± 0.048
protein stability index (pdr5∆): 2.21 ± 0.043
protein stability index (san1∆): 2.79 ± 0.041
protein stability index (ubr1∆): 2.9 ± 0.033

VKLYGREGSSARTIKAT [RPB2]
protein stability index (doa10∆): 2.47 ± 0.12
protein stability index (pdr5∆): 3.36 ± 0.12
protein stability index (san1∆): 3.25 ± 0.088
protein stability index (ubr1∆): 3.29 ± 0.19

LTMHKIIQLILWSIHPS [SRB8]
protein stability index (doa10∆): 1.62 ± 0.047
protein stability index (pdr5∆): 1.53 ± 0.047
protein stability index (san1∆): 1.61 ± 0.088
protein stability index (ubr1∆): 1.53 ± 0.044

KPAFSFGAKPDENKASA [YJL041W/NSP1]
protein stability index (doa10∆): 3.16 ± 0.093
protein stability index (pdr5∆): 3.3 ± 0.074
protein stability index (san1∆): 2.76 ± 0.06
protein stability index (ubr1∆): 3.24 ± 0.063

GCVDIDDALHAKKLPNG [DIS3]
protein stability index (doa10∆): 3.26 ± 0.059
protein stability index (pdr5∆): 3.23 ± 0.051
protein stability index (san1∆): 3.14 ± 0.04
protein stability index (ubr1∆): 3.14 ± 0.037

VITNLFSAIPFVGNDIV [COB]
protein stability index (doa10∆): 3.14 ± 0.05
protein stability index (pdr5∆): 3.12 ± 0.053
protein stability index (san1∆): 3.14 ± 0.034
protein stability index (ubr1∆): 3.13 ± 0.036

EVEKAHPIRLYTRYLDR [PRP8]
protein stability index (doa10∆): 3.11 ± 0.082
protein stability index (pdr5∆): 2.51 ± 0.068
protein stability index (san1∆): 2.35 ± 0.078
protein stability index (ubr1∆): 2.94 ± 0.048

NFENDNENNSNGGEDTS [REC8]
protein stability index (doa10∆): 2.93 ± 0.2
protein stability index (pdr5∆): 2.64 ± 0.27
protein stability index (san1∆): 2.65 ± 0.16
protein stability index (ubr1∆): 2.81 ± 0.16

YTDFENTFQKTVEPVYQ [FAS1]
protein stability index (doa10∆): 2.15 ± 0.099
protein stability index (pdr5∆): 2.44 ± 0.1
protein stability index (san1∆): 2.03 ± 0.15
protein stability index (ubr1∆): 2.73 ± 0.084

KLLLLNTSAIQETASPL [YIL149C/MLP2]
protein stability index (doa10∆): 2.33 ± 0.13
protein stability index (pdr5∆): 2.42 ± 0.21
protein stability index (ubr1∆): 2.56 ± 0.088

KNHFRKHWQERVKVHFD [RPL13A]
protein stability index (doa10∆): 1.3 ± 0.037
protein stability index (pdr5∆): 1.71 ± 0.05
protein stability index (san1∆): 1.47 ± 0.083
protein stability index (ubr1∆): 1.54 ± 0.038

VPNILSLDMNSMNKELI [NUT1]
protein stability index (doa10∆): 2.14 ± 0.075
protein stability index (pdr5∆): 1.96 ± 0.084
protein stability index (san1∆): 1.46 ± 0.27
protein stability index (ubr1∆): 1.91 ± 0.075

QSDFCLSWCPSRFSPEK [YGL100W/SEH1]
protein stability index (doa10∆): 3.09 ± 0.11
protein stability index (pdr5∆): 3.02 ± 0.19

SNDIIDKPYLLRIVTHL [YDL116W/NUP84]
protein stability index (doa10∆): 1.93 ± 0.11
protein stability index (pdr5∆): 1.99 ± 0.09
protein stability index (san1∆): 3.09 ± 0.15
protein stability index (ubr1∆): 1.93 ± 0.076

NSNPTSNVFGSNNSTTN [YJL041W/NSP1]
protein stability index (doa10∆): 3.23 ± 0.079
protein stability index (pdr5∆): 3.43 ± 0.086
protein stability index (san1∆): 3.16 ± 0.055
protein stability index (ubr1∆): 3.46 ± 0.066

AVHSIIALSRRFLLNGR [YDL116W/NUP84]
protein stability index (doa10∆): 2.11 ± 0.086
protein stability index (pdr5∆): 1.56 ± 0.069
protein stability index (san1∆): 2.06 ± 0.14
protein stability index (ubr1∆): 1.99 ± 0.085

RYRVDLLNTDHTLDPSL [RPO21]
protein stability index (doa10∆): 3.09 ± 0.072
protein stability index (pdr5∆): 2.95 ± 0.053
protein stability index (san1∆): 2.92 ± 0.05
protein stability index (ubr1∆): 2.9 ± 0.062

TNAPLRTLNIQPEVAVK [YIL149C/MLP2]
protein stability index (doa10∆): 2.08 ± 0.051
protein stability index (pdr5∆): 2.03 ± 0.048
protein stability index (san1∆): 1.65 ± 0.096
protein stability index (ubr1∆): 2.23 ± 0.042

VVDILSANGYLNATTAM [BRR2]
protein stability index (doa10∆): 2.75 ± 0.21
protein stability index (pdr5∆): 3.3 ± 0.22
protein stability index (san1∆): 3.17 ± 0.16
protein stability index (ubr1∆): 3.06 ± 0.2

FVTRKSRKRAKKMTKKA [PRP8]
protein stability index (doa10∆): 3.02 ± 0.075
protein stability index (pdr5∆): 2.91 ± 0.12
protein stability index (san1∆): 2.61 ± 0.11
protein stability index (ubr1∆): 2.95 ± 0.12

DVKCWSKFIEKFQDIVS [MED1]
protein stability index (doa10∆): 1.83 ± 0.12
protein stability index (pdr5∆): 2.62 ± 0.12
protein stability index (san1∆): 2.09 ± 0.14
protein stability index (ubr1∆): 1.89 ± 0.1

LYEIILAANYLNIKPLL [SKP1]
protein stability index (doa10∆): 1.51 ± 0.046
protein stability index (pdr5∆): 1.33 ± 0.045
protein stability index (san1∆): 1.28 ± 0.11
protein stability index (ubr1∆): 1.46 ± 0.045

SQQLLEILVTELTAQGY [RPN2]
protein stability index (doa10∆): 1.65 ± 0.077
protein stability index (pdr5∆): 2.19 ± 0.079
protein stability index (san1∆): 1.93 ± 0.13
protein stability index (ubr1∆): 1.77 ± 0.066

ANTPSIPTNPVDNENNK [SWI3]
protein stability index (doa10∆): 2.62 ± 0.08
protein stability index (pdr5∆): 2.8 ± 0.068
protein stability index (san1∆): 2.68 ± 0.053
protein stability index (ubr1∆): 3.08 ± 0.071

DARSSRNFSLAIIDKNT [PRE4]
protein stability index (doa10∆): 3.02 ± 0.075
protein stability index (pdr5∆): 2.78 ± 0.083
protein stability index (san1∆): 2.98 ± 0.05
protein stability index (ubr1∆): 2.89 ± 0.056

LTIGVKFFMKHGLILEL [SRB5]
protein stability index (doa10∆): 1.71 ± 0.05
protein stability index (pdr5∆): 1.62 ± 0.052
protein stability index (san1∆): 1.65 ± 0.062
protein stability index (ubr1∆): 1.94 ± 0.033

YKLSTVVLRLYLKDNIT [GRR1]
protein stability index (doa10∆): 1.64 ± 0.06
protein stability index (pdr5∆): 1.53 ± 0.051
protein stability index (san1∆): 1.36 ± 0.081
protein stability index (ubr1∆): 1.68 ± 0.068

WKAPSSIVLDSEHFDVN [DIS3]
protein stability index (doa10∆): 3.14 ± 0.062
protein stability index (pdr5∆): 3.47 ± 0.064
protein stability index (san1∆): 3.28 ± 0.056
protein stability index (ubr1∆): 3.33 ± 0.052

LVRNGPNEHPGAKYVIR [RPO21]
protein stability index (doa10∆): 2.91 ± 0.095
protein stability index (pdr5∆): 2.95 ± 0.1
protein stability index (san1∆): 2.76 ± 0.14
protein stability index (ubr1∆): 2.8 ± 0.084

AMLAAQDVAAKCKEVGI [RPS14B]
protein stability index (doa10∆): 2.36 ± 0.061
protein stability index (pdr5∆): 2.36 ± 0.065
protein stability index (san1∆): 1.99 ± 0.073
protein stability index (ubr1∆): 1.96 ± 0.044

NGFSFTKFNHNKEKSNS [YOR098C/NUP1]
protein stability index (doa10∆): 2.69 ± 0.082
protein stability index (pdr5∆): 2.98 ± 0.075
protein stability index (san1∆): 2.77 ± 0.039
protein stability index (ubr1∆): 2.57 ± 0.052

EHDLLRQIRPIMERIKS [ITC1]
protein stability index (doa10∆): 1.37 ± 0.28
protein stability index (pdr5∆): 2.3 ± 0.27

FQELDSKKQRNNGSKDH [RPN9]
protein stability index (doa10∆): 3.09 ± 0.17
protein stability index (pdr5∆): 2.64 ± 0.19
protein stability index (san1∆): 2.67 ± 0.15
protein stability index (ubr1∆): 2.37 ± 0.16

EDKVFASKGRTKIDMPI [BRN1]
protein stability index (san1∆): 2.59 ± 0.26

FAQPVADIENSTSGDPS [SSN2]
protein stability index (pdr5∆): 3.14 ± 0.23
protein stability index (san1∆): 2.9 ± 0.16
protein stability index (ubr1∆): 2.75 ± 0.24

MTDRYSFSLTTFSPSGK [PRE8]
protein stability index (pdr5∆): 3.16 ± 0.25

TTTLAFRFQGGIIVAVD [PRE2]
protein stability index (doa10∆): 3.27 ± 0.096
protein stability index (pdr5∆): 3.07 ± 0.083
protein stability index (san1∆): 2.81 ± 0.072
protein stability index (ubr1∆): 3.26 ± 0.09

SGDRLTRASKVLEQLSG [RPL11A]
protein stability index (pdr5∆): 3.12 ± 0.13
protein stability index (san1∆): 2.43 ± 0.27
protein stability index (ubr1∆): 2.92 ± 0.13

LIGAATKFKGGKRQLMK [SEC65]
protein stability index (doa10∆): 1.64 ± 0.1
protein stability index (pdr5∆): 2.03 ± 0.084
protein stability index (san1∆): 2.14 ± 0.11
protein stability index (ubr1∆): 1.93 ± 0.14

KARFVSKLAEEKIRAAG [RPL28]
protein stability index (doa10∆): 2.508 ± 0.025
protein stability index (pdr5∆): 2.66 ± 0.027
protein stability index (san1∆): 2.6 ± 0.028
protein stability index (ubr1∆): 2.793 ± 0.024

INSENDYSRKQLGYGKF [NUT1]
protein stability index (doa10∆): 3.46 ± 0.26
protein stability index (ubr1∆): 3.17 ± 0.22
